Assay results taken from US20130344073A1 (OMEROS, published 2013).

Target: T1, human MASP-3 (human)
T1 construct: For selection and FACS it was full-length or a fragment, fused to an Fc domain or labelled with Dylight; also called MASP-3 antigen; rMASP-3
T1 chain: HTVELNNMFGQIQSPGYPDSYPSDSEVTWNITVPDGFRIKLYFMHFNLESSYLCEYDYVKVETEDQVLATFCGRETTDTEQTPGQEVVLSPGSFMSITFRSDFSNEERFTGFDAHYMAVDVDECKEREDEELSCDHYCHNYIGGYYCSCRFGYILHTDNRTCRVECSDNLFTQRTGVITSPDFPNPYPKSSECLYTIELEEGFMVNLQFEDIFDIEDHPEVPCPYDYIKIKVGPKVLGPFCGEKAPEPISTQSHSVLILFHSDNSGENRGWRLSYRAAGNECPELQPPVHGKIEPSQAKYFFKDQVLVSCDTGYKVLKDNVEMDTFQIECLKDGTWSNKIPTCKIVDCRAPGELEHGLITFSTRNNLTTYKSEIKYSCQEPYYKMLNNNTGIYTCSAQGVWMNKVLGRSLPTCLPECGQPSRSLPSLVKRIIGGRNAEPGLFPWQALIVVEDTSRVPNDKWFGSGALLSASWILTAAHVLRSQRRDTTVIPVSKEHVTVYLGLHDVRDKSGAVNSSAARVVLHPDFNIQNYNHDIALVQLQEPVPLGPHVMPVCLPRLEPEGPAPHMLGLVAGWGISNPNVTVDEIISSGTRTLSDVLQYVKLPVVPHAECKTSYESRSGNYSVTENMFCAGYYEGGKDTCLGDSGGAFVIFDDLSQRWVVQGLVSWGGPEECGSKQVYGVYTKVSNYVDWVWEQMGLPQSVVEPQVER
Test: saturation binding; DTLacO cells expressing the antibody stained with various concentrations of fluorescent-labeled soluble antigen
From the text: Recombinant antibodies were generated by cloning PCR-amplified V regions into a vector that supported expression of human IgG1 in 293F cells (Yabuki et al., PLoS ONE, 7(4):e36032 (2012)).

B1: MASP-3 specific clone M3J5 (antibody, V domains shown)
VH: AVTLDESGGGLQTPGGGLSLVCKASGFTFSSYAMGWMRQAPGKGLEYVAGIRSDGSFTLYATAVKGRATISRDNGQSTVRLQLNNLRAEDTATYFCTRSGNVGDIDAWGHGTEVIVSS
VL: ALTQPASVSANPGETVKITCSGGYSGYAGSYYYGWYQQKAPGSAPVTLIYYNNKRPSDIPSRFSGSLSGSTNTLTITGVRADDEAVYFCGSADNSGAAFGAGTTLTVL
notes: Chicken V regions; recombinant form is chimeric with human IgG1 and lambda constant regions; also called Clone 5; DTLacO clone M3J5
  Kd: ~31 nM
